Measurements as given in the DeepSol protein solubility set.

experiment: soluble on expression in E. coli; label from the status in PepcDB or PDB records

| Sequence | soluble on expression in E. coli |
| --- | --- |
| MSLTELYIHNGRDVSGAPVAVLITDGVIAEVGTELTVPVGCPTLDAQGCYITAGWIDDHTHCNAHAALYYDDADAIGYRTGVTTVIDAGSTGADNVADLYQQAHRAATNVYALLNIARTGIVAQDELADLNQLSFSALRTAIKRYPDFIVGLKVRVSKSVVGDNGVEPLRVAKQYQADLTVQLPLMVHIGSNPPELAAIIALMRPGDVLTHCFNGKPNGIVNSTGEVAQYVRKAYQKGLIFDVGHGTDSFSFRTAALARTAHLFPQTLSSDIYYRNRLNGPVYSLAVCVEKLLLLGYRLEEIIPMITTNPARIFKLTHKGQLCRGYDADLTIFQTVTAPQIVVDSTGEERIAPTQVIPTYSVIAGRVYTCGVDKEGHHHHHH | soluble |
| MSLTEPEDPSRERLKHHFAQRVIHQARQILEIWQRLQRSEWSTTDMSELCEANLRLLRFAERFEQPEHTQLARSISQSLEAVDANRGRLSSNLITDLNRLMQRLSRTGLRHGDQLEQTFLPPLRKPIYVMLQDHDRAERLAKQLEFFGLSAQSLDSIPAFRSSMVERLPAAIVIDVDFCGAGMGLTLAAEAQVGLEQKLPLLFFSLHETDTPTRLAAVRAGGQEFLTGTLEASSLLEKIEVLTCVAQYEPYKVLIIDDSRAQALHTERLLNSAGIVTRTLIEPIQAMAELADFQPDLIILDMYMPACTGTELAKVIRHNDRYVSVPIIYLSAEDDLDKQLDAMSEGGDDFLTKPIKPRHLITTVRNRAARARNLKARMVRDSLTGLYNHTHILQLLEDCSFRARREGKPLSFAMLDIDHFKRVNDSHGHPMGDRVIKSLALFLKQRLRKTDFIGRYGGEEFAIVMPDTDQDAACKVLDEIRQRFAEIHYPAQPQDLWCTFSAGVVEMQEDSDSLIMASQADEALYRAKHGGRNRVQAARSSQSAIFSSESTDSVITLEGHHHHHH | soluble |
| MSLTEQRAVIAIYLRLSRESDDSTSLETQRSFAHRWLLAHGYDPADAVEYIDASVSGAKPLEARKGMAALMAARPTVVVAWKLDRFARSVSDFLRLVAWAEAHGASIATTDNAIDTTTATGRMVATVLAALAEWERNAIASRITDGHATRRSQGRWSSGRPPFGYRIERRDGAAYLAIDDDQAAKIRKAVAALVNGSTVAATARLTGLSEPQWRRLLKSPTLRGQRAHKGELVCEVDGITPVKFAEPILSAAELLKVRERMLALATGQDRAPRRATPMCSGMAFCHRCAGKLNGGTSDKGVPLYRCKAGHVTIYAETLDSRVESEFLTTFGSYAETVIRLEGGNDLSAELLEAKEQAERLAARMATAGPLMLGTLESLAQDLEDTHARLRAAHDPDVREVQVATGRTMAQAWEMYDVPDRSRLLAGMGLRVSLHPRQLADRLTITWGPTPEEAPEAEWDGLALSEAEGHHHHHH | not soluble |
| MSLTESGSCSTARQAKQKRKSHSLSIRRTNSSEQERTGLPREMLEGQDSKLPSSVRSTLLELFGQIEREFENLYIENLELRREIDTLNERLAGEGQAIDGAELSKGQLKTKASHSTSQLSQKLKTTYKASTSKIVSSFKTTTSRAICQLVKEYIGHRDGIWDVSVTRTQPIVLGTASADHTAMLWSIETGKCLVKYAGHVGSVNSIKFHPSEQLALTASGDQTAHIWRYVVQLPTPQPVADTSQQISGEDEIECSDKDEPDIDGDVSSDCPTVRVPLTSLKSHQGVVIAADWLVGGKQVVTASWDRTANMYDVETSELVHSLTGHDQELTHCCTHPTQRLVVTSSRDTTFRLWDFRDPSIHSVNVFQGHTDTVTSAVFTVGDNVVSGSDDRTVKVWDLKNMRSPIATIRTDSAINRINVCVGQKIIALPHDNRQVRLFDMSGVRLARLPRSSRQGHRRMVCCSAWSEDHPICNLFTCGFDRQAIGWNINIPALLQEKEGHHHHHH | not soluble |
| MSLTEYVHGYSEREALRLSEQAETLEKLLHHDTVYPPGAKVLEAGCGIGAQTVILAKNNPDAEITSIDISPESLEKARENTEKNGIKNVKFLQANIFSLPFEDSSFDHIFVCFVLEHLQSPEEALKSLKKVLKPGGTITVIEGDHGSCYFHPEGKKAIEAWNCLIRVQAYMKGNSLVGRQIYPLLQESGFEKIRVEPRMVYIDSSKPELVDGFILKTIIPMVEGVKEQSLKMQIIKEEEWEKGIEELHKTAEHGGTFCYTFFKGWGTKEGHHHHHH | soluble |
| MSLTFTEQAKDQAQASWQGSFQHPFITELHEGTLSPTIFRYYLIQDHYYLKHFSQLYRLIAAQTQQPRLKKLLLTNAENLALGELAIRETFFEELAITEEEVAATPIAPTAYHYVSHMYRQLIEGTPKTAAASMLPCSWLYQEIGAQLVKQHSPEPLYQRWIETYAGEEAYQHVQEERQLLDQLYEESSPQEQAAMITAFVISSEMEYAFWEMAYTHETWIGEGGSHHHHHH | soluble |
| MSLTILAIDTSNYTLGIALLREDTVIAEYITYLKKNHSVRAMPAVHSLLNDCDMAPQDLSKIVVAKGPGSYTGVRIGVTLAKTLAWSLDIPISAVSSLETLAANGRHFDGLISPIFDARRGQVYTGLYQYKNGLLEQVVPDQNVMLADWLEMLKEKDRPVLFLGHDTSLHKQMIEDVLGTKGFIGTAAQHNPRPSELAFLGKEKEAADVHGLVPDYLRLAEAEAKWIESQKEGHHHHHH | soluble |
| MSLTILELTFATNQLTTTFFNHKLEPLHQKTFPFEALTIEETVPELCQLILAEAAPILGGIVADFPADFFSPEETLALVPQAVIQAFAEQLNTPLLTAAEQAAAPNLLEAFEEKRQYLAWHLDYYGYVPGKNEYAVESLLTVGNGFLGLRGTTPEMTISDDHYPATYIAGLYNTAASEVAGQVVENEDFVNAPDNQHIALKIGDATDWLTISPDTLQQLHRQLNLKTGLFVAEMILKDADNQQIKLTTKKIANMAQPNDYHLQYTFEPLNFSAPITLKTVTDGSVYNYNVARYRNLTAKHFQVTALSAQENKTVIEVCTNQSNLSVRETSLITGDFFEKEAITIQEEAEKIAQVVTVMAHQGTRYTLEKQVFVQASHAEQSWQVPFTPKDSFAAAAQESARAWQTLWQQANITVTGDLMSQKLLRIHSYHLLASASPFSNQAQALDVSITARGLHGEAYRGHIFWDEIFILPFYIQHYPDTAKQLLLYRYHRLEKAKENAAASQYRGAMYPWQSGRDGRETTQKLHLNPLNGHWGEDHSILQRHVSLAIAYNAWLYWHSTQDHEFMKQYGGEMLLEIAQFWNSAATLDDATGRFFIDKVMGPDEFHEGYPDQAESGLKNNAYTNLMVVWLFEELTNILALFSEEEQAQLFAKTQTTSADLARMQQIQNSLEIEVNSDGIIAQYEGYFGLKEIDWTAMKEKYGNIYRMDRILKAEGESPDDYKVAKQADTLMLFYNLDKTRVDQILEDLGYQLPADYLEKNLLYYLKRTSHGSTLSRIVHAQLAEMAQFHELSWQLYQEALYSDYRDIQGGTTAEGIHTGVMAATIHVTLATYAGVDTRQNELSICPNLPEHWQALAFQFIHQGVTYQFSLTQTSVTITADRDTQLLVQGALIPLTAERPKEVHYQEGHHHHHH | soluble |
| MSLTIPDSTPSDFSHEFFGSLDPQALAHPDSIKWQHYGEGVIPMWIADMDFPVAPPILRALEDRLTRGLGYPLGRDDRLIADLQTKWASQGLTDVPADGIHFTPSVVPGLYAGVHGLTEPGDRVVTMTPIYHPFHLAINDLGREVAAAPLREGDTRWEIDWDALERAAEGARLLMLCHPHNPCGRVWDADELARLRELVLAHDLYVISDELHADLRFTDAPFEAFAADPRVRDRTLTVTGPCKAFNTAGLGIGVMVTHDPELLARVQRRVAGLGGHPSALSFTMWRVALEDGGPWLARTVEYLRGNRDFMTAFLRERLPWVRFTVPEATYLAWLDLREHPEAGRIQEFLLEEAKVAVHNGPTFAPGEQGAAYQGFIRVNFATSRAILTEALERMARALDTRQEGHHHHHH | soluble |
| MSLTMAKTLYEKVFDAHVVYEGKNELPILYIDRHLIHEVTSPQAFSGLKMAKRRMARADLTLATIDHDVSTKSMDLNACSDMAKEQITTLMQNTKEFGVRLLGLGDKNQGIVHIVGPELGFTLPGVTLVCGDSHTATHGAFGALAFGIGTSEVEHVMATQTLKQAKLKTMKIECKGQFQKGVYTKDLILYLIAQYGTAKGTGYAIEFCGELIRNLSMEARMTLCNMAIEFGAKVGMIAPDEITFEYIKGKEFAPKGEEFQKYCEYWKSLRSDEGAKYDASITLDVSKIKPQISYGTNPSQVIGIDEKIPKISDFKNQSEQKSLLDALYYVNLEQDQVIEGVKIDIVFIGSCTNGRLEDLKIAADILKGRKIHKNVKALIVPGSMQVRKEAENLGLDKIFIEAGCEWRYAGCSMCLGMNDDKANSGQRVASTSNRNFVGRQGKGSITHLMSPASAAACAIEGVICDNRKYLGEGHHHHHH | soluble |
